Results reported in patent US20220306758A1.

Target: monkey BCMA-MMH (monkey BCMA with C-terminal myc-myc-hexahistidine tag) (monkey)
Assay: SPR, Biacore, mAb captured by anti-hFc, 25 C

Sequence of monkey BCMA-MMH (monkey BCMA with C-terminal myc-myc-hexahistidine tag) (monkey) (chain, as listed by the source limits assumed): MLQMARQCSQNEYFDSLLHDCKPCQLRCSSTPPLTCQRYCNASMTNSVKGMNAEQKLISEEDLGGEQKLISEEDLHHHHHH

B1: mAb16732 (REGN4514) (antibody, V domains shown)
VH: EVQLVESGGGLVQPGRSLRLSCAASGFTFDDYAMHWVRQAPGKGLEWVSGISWNSGNMGYADSVKGRFTISRDNAKNSLFLQMHSLRAEDTAFYYCAKVRLTAFDFWGQGTLVTVSS
VL: DIQMTQSPSSLSASVGDRVTITCRTSQSIGNYLNWFQQKPGKAPKLLIYTASSLQNGVPSRFTGSGSGTDFTLTISSLQPEDFVIYYCQQSFSTPYTFGQGTKLEIK
90 nM mfBCMA.mmh Bind (RU): 1.1 RU

B2: mAb16747 (REGN4515) (antibody, V domains shown)
VH: QVQLVESGGGLVKPGGSLRLSCAASGFTFSDYYISWIRQAPGKGLEWVSYISSSGSSIKYADSVKGRFTISRDNAKNSLYLQMNSLRAEDTAVYYCAREGGNYGMDVWGQGTTVTVSS
VL: DIQMTQSPSSVSASVGDRVTITCRASQGINNWLVWYQQKPGKAPKLLIYAATSLQSGVPSRFSGSGSGTDFTLTISSLQPEDFATYYCQQANSFPPTFGQGTKLEIK
90 nM mfBCMA.mmh Bind (RU): 1.9 RU
